{
  "source": "patent US20240383964A1",
  "about": "“De Novo Designed alpha(5) beta(1) Integrin selective minibinders” (UNIVERSITY OF WASHINGTON, priority 2023, published 2024)",
  "molecules": {"B1": {"name": "00179_v4.1: highest affinity α5β1 minibinder, sequence SELIIHGRGDFPSSELERLRERFERLGIKVRVDHKVLTLIGISEEEAERLARELRKRGIWVEIRK (protein)", "chain": "SELIIHGRGDFPSSELERLRERFERLGIKVRVDHKVLTLIGISEEEAERLARELRKRGIWVEIRK"}},
  "key": {"integrin avb8": {"molecular_target": "integrin avb8 (Homo sapiens, UniProt P06756+P26012)", "assay": "BLI cross specificity, integrin avb8", "type": "binding", "details": "500 nM integrin (FIG. 2B legend: 500 nM or 1000 nM), integrin assay buffer"}, "integrin avb6": {"molecular_target": "integrin avb6 (Homo sapiens, UniProt P06756+P18564)", "assay": "BLI cross specificity, integrin avb6", "type": "binding", "details": "500 nM integrin (FIG. 2B legend: 500 nM or 1000 nM), integrin assay buffer"}, "[1]": {"molecular_target": "T1, α5β1 on K562 cells wild type (Homo sapiens, UniProt P05556+P08648)", "T1 construct": "endogenous in cells; host or cells: K562 wild type (printed 'A562')", "T1 sequence (P08648 42-894 limits assumed)": "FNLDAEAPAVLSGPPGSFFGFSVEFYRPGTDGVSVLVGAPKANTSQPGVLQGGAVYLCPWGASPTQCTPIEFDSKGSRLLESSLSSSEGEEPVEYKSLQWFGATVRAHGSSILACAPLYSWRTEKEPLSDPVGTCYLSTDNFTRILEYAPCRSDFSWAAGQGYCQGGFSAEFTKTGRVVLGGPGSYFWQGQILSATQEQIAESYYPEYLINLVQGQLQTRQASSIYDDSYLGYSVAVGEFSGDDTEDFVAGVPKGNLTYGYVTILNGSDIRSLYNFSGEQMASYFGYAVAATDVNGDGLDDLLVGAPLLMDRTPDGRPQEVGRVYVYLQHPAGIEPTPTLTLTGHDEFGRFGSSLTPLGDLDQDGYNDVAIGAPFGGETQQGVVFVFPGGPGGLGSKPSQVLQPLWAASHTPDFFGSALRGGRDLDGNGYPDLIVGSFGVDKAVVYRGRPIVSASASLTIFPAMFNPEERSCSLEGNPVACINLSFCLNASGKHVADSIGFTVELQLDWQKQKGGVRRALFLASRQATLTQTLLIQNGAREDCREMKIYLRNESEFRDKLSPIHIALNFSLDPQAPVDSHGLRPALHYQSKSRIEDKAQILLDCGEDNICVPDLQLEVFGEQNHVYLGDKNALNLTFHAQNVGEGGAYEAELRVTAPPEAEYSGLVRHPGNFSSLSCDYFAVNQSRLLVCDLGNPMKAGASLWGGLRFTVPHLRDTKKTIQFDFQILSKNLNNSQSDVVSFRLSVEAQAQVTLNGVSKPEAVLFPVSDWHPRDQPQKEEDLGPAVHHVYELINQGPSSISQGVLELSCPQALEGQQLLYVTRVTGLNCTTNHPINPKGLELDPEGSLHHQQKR", "T1 sequence (P08648 895-1049 partner limits assumed)": "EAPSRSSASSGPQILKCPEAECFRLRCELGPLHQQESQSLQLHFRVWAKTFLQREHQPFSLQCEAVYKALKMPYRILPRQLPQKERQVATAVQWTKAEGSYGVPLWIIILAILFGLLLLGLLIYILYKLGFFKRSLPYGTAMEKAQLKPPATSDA", "T1 sequence (P05556 21-798)": "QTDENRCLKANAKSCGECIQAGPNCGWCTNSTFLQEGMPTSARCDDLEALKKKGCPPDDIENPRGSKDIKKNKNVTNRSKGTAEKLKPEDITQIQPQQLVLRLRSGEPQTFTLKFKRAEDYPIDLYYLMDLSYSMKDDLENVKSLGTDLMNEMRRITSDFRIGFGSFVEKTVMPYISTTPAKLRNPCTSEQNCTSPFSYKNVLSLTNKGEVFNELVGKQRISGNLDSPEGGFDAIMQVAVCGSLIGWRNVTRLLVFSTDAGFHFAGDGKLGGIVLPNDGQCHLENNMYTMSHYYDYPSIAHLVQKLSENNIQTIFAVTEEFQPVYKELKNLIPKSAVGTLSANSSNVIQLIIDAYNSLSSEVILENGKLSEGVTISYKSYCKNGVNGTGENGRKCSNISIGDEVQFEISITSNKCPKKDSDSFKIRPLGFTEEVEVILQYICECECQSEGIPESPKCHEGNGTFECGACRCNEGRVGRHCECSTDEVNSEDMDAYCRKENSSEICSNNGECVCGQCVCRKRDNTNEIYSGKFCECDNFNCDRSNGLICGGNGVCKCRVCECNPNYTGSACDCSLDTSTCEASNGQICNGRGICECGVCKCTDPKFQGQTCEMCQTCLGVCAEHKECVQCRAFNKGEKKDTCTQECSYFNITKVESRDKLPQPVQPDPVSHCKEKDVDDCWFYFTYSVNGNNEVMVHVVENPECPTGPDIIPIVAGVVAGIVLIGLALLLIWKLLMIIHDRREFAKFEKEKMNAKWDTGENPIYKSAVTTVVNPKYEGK", "assay": "Cell surface titration of minibinder on wild type cells", "type": "cell-based", "details": "α5β1 the only RGD binding integrin expressed", "protocol": "FIG. 2. (A) BLI binding affinity traces for minibinder or ^8RGD^10/GGG mutant against α5β1 in indicated buffers. Minibinder affinity to integrin α5β1 is dependent on metal ion presence and RGD motif. All affinity data was collected by Octet™ R8 and binding affinity was estimated by the Octet™ ForteBio software package. (B) Minibinder has no detectable affinity in presence of 500 nM or 1000 nM integrin αvβ1, αvβ3, αvβ6, αvβ8 and α8β1. (C) Cell surface titration of minibinder 4584_V5.3 and 00179_v4.1 against K562 cells wild type. […] Integrin α5 subunit and β1 subunit were stained with integrin α5 and active integrin β1 subunit specific antibody, respectively. (E) Quantification of (D). Quantification was counted as a percentage of mb-sheets that colocalized with staining of a5 and b1, a5 only, b1 only, or none; 30-35 sheets were counted in each biological repeat. […] Vascular stability was analyzed at 12-h timepoints. […] (G) Quantification of (F). The number of nodes, meshes, and tubes from images in (F) were quantified using an angiogenesis analyzer plug-in in ImageJ. Statistical significance of each were analyzed using One-way Anova Bonferroni's multiple comparison test. […] The wound area of T0 and T12 time points were quantified using imageJ and level of cell migration were calculated using this equation (AreaT0-T12)/AreaT0, all samples were normalized to PBS as fold change. […]"}, "integrin α5β1": {"molecular_target": "integrin α5β1 (Homo sapiens, UniProt P05556+P08648)", "sequence (P08648 42-894 limits assumed)": "as the sequence (P08648 42-894 limits assumed) above", "sequence (P08648 895-995 partner limits assumed)": "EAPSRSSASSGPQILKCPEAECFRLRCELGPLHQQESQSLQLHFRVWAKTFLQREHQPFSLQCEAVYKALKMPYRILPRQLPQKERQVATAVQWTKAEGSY", "sequence (P05556 21-728 limits assumed)": "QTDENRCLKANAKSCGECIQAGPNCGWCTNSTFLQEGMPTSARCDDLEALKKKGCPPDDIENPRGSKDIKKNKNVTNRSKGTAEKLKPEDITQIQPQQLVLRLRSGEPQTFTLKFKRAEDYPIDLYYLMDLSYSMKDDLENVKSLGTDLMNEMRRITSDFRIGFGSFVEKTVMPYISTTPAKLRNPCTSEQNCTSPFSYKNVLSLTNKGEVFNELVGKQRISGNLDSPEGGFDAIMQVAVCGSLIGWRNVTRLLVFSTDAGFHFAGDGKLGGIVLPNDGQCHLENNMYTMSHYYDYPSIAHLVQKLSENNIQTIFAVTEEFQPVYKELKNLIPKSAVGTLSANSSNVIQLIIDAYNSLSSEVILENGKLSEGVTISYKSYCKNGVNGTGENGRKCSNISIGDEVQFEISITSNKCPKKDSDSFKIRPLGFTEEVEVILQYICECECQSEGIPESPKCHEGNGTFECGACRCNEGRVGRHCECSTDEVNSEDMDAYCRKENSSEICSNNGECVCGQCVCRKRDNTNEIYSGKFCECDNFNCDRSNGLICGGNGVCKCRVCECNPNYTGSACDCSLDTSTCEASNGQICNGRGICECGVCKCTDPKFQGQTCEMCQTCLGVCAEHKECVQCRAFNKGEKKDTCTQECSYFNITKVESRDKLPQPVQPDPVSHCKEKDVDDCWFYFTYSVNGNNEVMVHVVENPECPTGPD", "assay": "Biolayer interferometry (BLI) binding to integrin α5β1", "details": "pH 5 supplemented with 1 mM MgCl2, 1 mM CaCl2", "text": "The polypeptides of the disclosure selectively bind to α5β1 integrin with antagonistic activity. The term “antagonistic activity” is used herein to describe the activity of a polypeptide that, upon binding to α5β1 integrin, inactivates the integrin complex or inhibits processes normally initiated by the integrin. In some embodiments, the polypeptide or fusion protein of any embodiment or combination of embodiments herein, binds integrin α5β1 with an affinity of between about 0.025 nm and about 50 μm, or between about 0.05 nm and about 8 μm, or between about 0.05 nm and about 8 μm, or between about 0.05 nm and about 2.5 μm, or between about 0.05 nm and about 700 nm, or between about 0.05 nm and about 0.5 nm. The binding affinity can be measured, for example, using biolayer interferometry (BLI) or yeast display. […] In one such assay to measure the binding affinity to a51integrin, the polypeptides are cloned with an N-terminus avi-tag and biotinylated chemically. Prior to measurements, streptavidin-coated biosensors are first hydrated in assay buffer for 10 minutes. […]\n15 constructs of identified initial hits were expressed and purified—their binding affinities range from nanomolar to micromolar (data not shown). […] The binding affinity of each variant was calculated as described in Cao et al, 2022. […]"}, "integrin avb3": {"molecular_target": "integrin avb3 (Homo sapiens, UniProt P05106+P06756)", "sequence (P06756 31-889 limits assumed)": "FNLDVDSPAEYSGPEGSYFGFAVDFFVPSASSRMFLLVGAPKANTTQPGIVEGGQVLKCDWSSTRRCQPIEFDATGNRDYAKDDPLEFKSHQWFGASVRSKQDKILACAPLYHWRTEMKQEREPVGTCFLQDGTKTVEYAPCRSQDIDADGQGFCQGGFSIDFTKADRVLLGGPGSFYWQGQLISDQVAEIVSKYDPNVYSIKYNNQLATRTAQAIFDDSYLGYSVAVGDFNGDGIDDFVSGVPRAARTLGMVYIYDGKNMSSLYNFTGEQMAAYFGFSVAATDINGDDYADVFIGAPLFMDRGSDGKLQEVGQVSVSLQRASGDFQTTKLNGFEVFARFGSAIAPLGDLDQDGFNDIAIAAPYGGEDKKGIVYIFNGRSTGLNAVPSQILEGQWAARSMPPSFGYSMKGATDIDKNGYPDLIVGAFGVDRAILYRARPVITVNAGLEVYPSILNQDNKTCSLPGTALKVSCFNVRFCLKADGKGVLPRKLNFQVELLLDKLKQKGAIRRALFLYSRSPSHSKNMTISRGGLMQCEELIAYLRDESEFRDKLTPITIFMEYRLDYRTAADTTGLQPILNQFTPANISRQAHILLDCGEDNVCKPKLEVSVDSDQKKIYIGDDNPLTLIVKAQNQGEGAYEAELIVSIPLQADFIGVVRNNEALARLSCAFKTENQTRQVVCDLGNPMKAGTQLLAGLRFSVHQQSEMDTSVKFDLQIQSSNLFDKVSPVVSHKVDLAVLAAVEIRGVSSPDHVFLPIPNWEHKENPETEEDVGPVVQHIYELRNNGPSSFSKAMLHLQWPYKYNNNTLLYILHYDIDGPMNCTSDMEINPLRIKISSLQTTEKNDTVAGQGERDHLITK", "sequence (P06756 891-992 partner limits assumed)": "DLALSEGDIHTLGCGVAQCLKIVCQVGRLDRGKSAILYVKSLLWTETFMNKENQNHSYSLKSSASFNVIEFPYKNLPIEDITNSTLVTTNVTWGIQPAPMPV", "sequence (P05106 27-718 limits assumed)": "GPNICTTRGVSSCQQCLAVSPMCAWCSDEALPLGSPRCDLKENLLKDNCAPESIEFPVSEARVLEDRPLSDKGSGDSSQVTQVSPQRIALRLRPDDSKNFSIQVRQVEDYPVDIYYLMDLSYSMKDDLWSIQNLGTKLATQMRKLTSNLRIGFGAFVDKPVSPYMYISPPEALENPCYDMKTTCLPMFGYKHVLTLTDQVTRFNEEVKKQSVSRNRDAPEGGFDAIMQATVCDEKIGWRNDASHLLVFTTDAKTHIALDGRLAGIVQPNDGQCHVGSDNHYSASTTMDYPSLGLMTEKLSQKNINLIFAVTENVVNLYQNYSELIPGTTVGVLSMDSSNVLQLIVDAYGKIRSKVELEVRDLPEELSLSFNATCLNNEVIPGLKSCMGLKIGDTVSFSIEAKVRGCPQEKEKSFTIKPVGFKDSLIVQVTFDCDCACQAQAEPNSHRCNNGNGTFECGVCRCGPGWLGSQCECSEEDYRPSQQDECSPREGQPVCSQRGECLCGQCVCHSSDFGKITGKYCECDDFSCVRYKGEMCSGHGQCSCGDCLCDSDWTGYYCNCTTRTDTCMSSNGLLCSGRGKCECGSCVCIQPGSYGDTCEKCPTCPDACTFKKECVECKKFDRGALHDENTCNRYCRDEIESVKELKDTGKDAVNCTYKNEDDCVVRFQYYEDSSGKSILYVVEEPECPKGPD", "assay": "BLI cross specificity, integrin avb3", "type": "binding", "details": "500 nM integrin (FIG. 2B legend: 500 nM or 1000 nM), integrin assay buffer"}},
  "data": [
    {"molecule": "B1", "values": [
      {"measurement": "binding to integrin avb8", "setting": "integrin avb8", "value": "No detectable binding"},
      {"measurement": "binding to integrin avb6", "setting": "integrin avb6", "value": "No detectable binding"},
      {"measurement": "binding affinity to α5β1 on the cell surface", "setting": "[1]", "value": "Nanomolar binding ability"},
      {"measurement": "binding to α5β1 at pH 5", "setting": "integrin α5β1", "value": "still can bind"},
      {"measurement": "binding to integrin avb3", "setting": "integrin avb3", "value": "No detectable binding"}
    ]}
  ]
}
